# Measurements as given in patent publication US20260193366A1 (APOGEE THERAPEUTICS, published 2026).
# Residue numbers refer to the chain shown, from its start.
# T1: cynomolgus monkey IL-4Rα (cynomolgus monkey, UniProt P24394 26-231 (human entry), limits assumed)
# T1 construct: also called Cyno IL-4Rα; cyIL-4Rα
# T1 chain: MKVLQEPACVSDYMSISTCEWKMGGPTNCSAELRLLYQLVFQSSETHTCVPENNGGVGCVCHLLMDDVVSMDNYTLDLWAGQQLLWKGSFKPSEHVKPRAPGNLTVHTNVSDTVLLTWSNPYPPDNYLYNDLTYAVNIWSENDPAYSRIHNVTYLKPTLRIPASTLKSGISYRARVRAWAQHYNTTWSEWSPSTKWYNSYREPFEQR
# T2: human IL-4Rα (human, UniProt P24394 26-232)
# T2 construct: also called Hu IL-4Rα; hIL-4Rα
# T2 sequence: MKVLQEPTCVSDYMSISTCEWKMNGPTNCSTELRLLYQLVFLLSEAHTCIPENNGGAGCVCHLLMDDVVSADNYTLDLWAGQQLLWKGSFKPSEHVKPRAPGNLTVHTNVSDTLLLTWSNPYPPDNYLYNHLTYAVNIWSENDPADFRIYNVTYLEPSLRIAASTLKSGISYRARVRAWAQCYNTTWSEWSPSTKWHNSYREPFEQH
# T3: hIL-4Rα on cells (human, UniProt P24394 26-825)
# T3 sequence: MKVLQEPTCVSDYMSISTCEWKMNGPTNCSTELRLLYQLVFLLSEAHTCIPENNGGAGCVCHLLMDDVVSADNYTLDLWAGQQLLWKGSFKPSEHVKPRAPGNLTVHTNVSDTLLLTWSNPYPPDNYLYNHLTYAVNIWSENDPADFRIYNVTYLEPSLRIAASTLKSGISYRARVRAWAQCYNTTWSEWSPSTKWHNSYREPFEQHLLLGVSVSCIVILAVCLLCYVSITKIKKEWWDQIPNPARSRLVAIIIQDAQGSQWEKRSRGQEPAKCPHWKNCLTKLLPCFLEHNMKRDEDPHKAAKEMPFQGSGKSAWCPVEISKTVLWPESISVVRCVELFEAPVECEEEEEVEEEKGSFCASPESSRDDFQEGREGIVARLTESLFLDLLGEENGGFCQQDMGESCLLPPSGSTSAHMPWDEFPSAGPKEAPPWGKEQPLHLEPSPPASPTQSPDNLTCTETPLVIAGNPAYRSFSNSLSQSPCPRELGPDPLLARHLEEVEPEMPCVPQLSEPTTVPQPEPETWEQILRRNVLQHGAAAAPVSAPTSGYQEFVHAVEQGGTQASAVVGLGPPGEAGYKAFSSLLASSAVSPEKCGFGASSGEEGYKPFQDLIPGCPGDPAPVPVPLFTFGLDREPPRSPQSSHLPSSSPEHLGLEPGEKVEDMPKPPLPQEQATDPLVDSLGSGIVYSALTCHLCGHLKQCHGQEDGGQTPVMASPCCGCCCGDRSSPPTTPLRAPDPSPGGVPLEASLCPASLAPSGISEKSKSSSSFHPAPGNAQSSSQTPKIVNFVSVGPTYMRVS
# B1: Construct 29 (mAb437) (antibody, IgG4, V domains shown)
# VH: EVQLVESGGGLEQPGGSLRLSCAGSGFTFRDFAMTWVRQAPGKGLEWVSSISGSGGNIYYADSVKGRFTISRDNSKNTLYLQMNSLRAEDTAVYYCAKDRLSVTVRPRYYGLDVWGQGTTVTVSS
# VL: DIVMTQSPLSLPVTPGEPASISCTSSQSLLYSIGYNYVDWYLQKSGQSPQLLIYLGNKRASGVPDRFSGSGSGTDFTLKISRVEAEDVGFYYCMQSLTSPYTFGQGTKLEIK
# notes: VH/VL only
# B2: Construct 1 (mAb410) (antibody, IgG4, V domains shown)
# VH: B1 VH with V103K, V105I
# VL: B1 VL with T24R, L29V, N57S, T98D, S99T
# notes: VH/VL only
# B3: Construct 2 (mAb411) (antibody, IgG4, V domains shown)
# VH: B1 VH with V103K, V105I
# VL: B1 VL with S25A, N57S, S96A, S99T
# notes: VH/VL only
# B4: Construct 3 (mAb412) (antibody, IgG4, V domains shown)
# VH: B1 VH with G56S, N57S, I58T, V103I
# VL: B1 VL with T24R, S96A, S99T
# notes: VH/VL only
# B5: Construct 4 (mAb413) (antibody, IgG4, V domains shown)
# VH: B1 VH with V103K, V105I
# VL: B1 VL with S25A, K58N, S61T, S96A, S99T
# notes: VH/VL only
# B6: Construct 5 (mAb414) (antibody, IgG4, V domains shown)
# VH: B1 VH with G56D, L101V, V103I, V105I
# VL: B1 VL with T24R, Y35K, T98Q, S99T, T102V
# notes: VH/VL only
# B7: Construct 6 (mAb415) (antibody, IgG4, V domains shown)
# VH: B1 VH with G56D
# VL: B1 VL with T24R, S28G, T98Q, S99T
# notes: VH/VL only
# B8: Construct 8 (mAb417) (antibody, IgG4, V domains shown)
# VH: B1 VH with G56D
# VL: B1 VL with T24R, S26T, Y35K, K58N, S61T, S96A, S99T, T102A
# notes: VH/VL only
# B9: Construct 9 (mAb418) (antibody, IgG4, V domains shown)
# VH: B1 VH with R30T
# VL: B1 VL with T24R, Y35K, K58N, S61T, S96A, T98G
# notes: VH/VL only
# B10: Construct 10 (mAb419) (antibody, IgG4, V domains shown)
# VH: B1 VH with S54D, G56S, I58T, V103K, V105I
# VL: B1 VL with T24R, S96A, T98G
# notes: VH/VL only
# B11: Construct 11 (mAb420) (antibody, IgG4, V domains shown)
# VH: B1 VH with S54D, G56S, I58T, V103K, V105I
# VL: B1 VL with T24R, L29V, T98Q, S99T
# notes: VH/VL only
# What was measured:
# cynomolgus monkey IL-4Rα = molecular target: T1, cynomolgus monkey IL-4Rα; experiment: SPR, Carterra LSA;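 also: antibodies captured on an anti-human Fc sensor chip, antigen injected at several concentrations, association and dissociation rates fitted with a 1:1 Langmuir model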
# Description: (§1) Binding affinity (KD) of antibodies to human and cynomolgus monkey IL-4Rα was determined through surface plasmon resonance (SPR) using a Carterra LSA. Briefly, an HC30M sensor chip that was previously functionalized with a polyclonal mixture of goat anti-human Fc antibody and used to capture purified antibodies at a level between 100-1000 RLU. […] Regeneration of the chip between different concentrations of antigen was performed with 200 mM phosphoric acid and antibody was captured again as previously described. Association and dissociation rate constants were subsequently determined through fitting to a 1:1 Langmuir binding model using the Kinetics Software from Carterra from which a KD value was derived.
# human IL-4Rα = molecular target: T2, human IL-4Rα; experiment: SPR, Carterra LSA;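 also: antibodies captured on an anti-human Fc sensor chip, antigen injected at several concentrations, association and dissociation rates fitted with a 1:1 Langmuir model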
# Description: as §1
# hIL-4Rα on cells [1] = molecular target: T3, hIL-4Rα on cells; experiment: cell-based or functional assay
# hIL-4Rα on cells [2] = molecular target: T3, hIL-4Rα on cells; experiment: cell-based or functional assay; remark: listed apart in the source
# hIL-4Rα on cells [3] = molecular target: T3, hIL-4Rα on cells; experiment: FACS on HEK293 cells, competitor biotin-hIL-13;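 also: stably transduced cells co-expressing both receptor chains, stained cold, with cell-bound signal read as mean fluorescence intensity by flow cytometry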
# hIL-4Rα on cells [4] = molecular target: T3, hIL-4Rα on cells; experiment: cell-based or functional assay; remark: listed apart in the source
# hIL-4Rα on cells [5] = molecular target: T3, hIL-4Rα on cells; experiment: FACS on HEK293 cells, competitor biotin-hIL-4;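 also: HEK293 cells stably co-expressing hIL-13Rα and hIL-4Rα, stained for 1 h at 4 °C, read-out as mean fluorescence intensity by flow cytometry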
# Description: Briefly, HEK293 previously transduced to stably express both hIL-13Rα and hIL-4Rα were cultured and harvested. Cells were seeded at 200,000 cells in 100 uL per well. Cells were washed and the supernatant discarded. […] The cells were stained in this mixture at 4° C. for 1 hour. […] Cells were incubated 4° C. for 1 hour, protected from light. Cells were then washed and the MFI of cells in each well were recorded by FACS using a BD FACSCanto II. Subsequent data were analyzed using GraphPad Prism.
Binder,KD Relative to Dupilumab (cynomolgus monkey IL-4Rα),Kd (cynomolgus monkey IL-4Rα) [nM],KD Relative to Dupilumab (human IL-4Rα),Kd (human IL-4Rα) [nM],Relative Inhibition of IL-4 induced TARC IC50 (hIL-4Rα on cells [1]),Relative Inhibition of IL-13 induced TARC IC50 (hIL-4Rα on cells [1]),Relative Inhibition of IL-4 induced TF-1 Proliferation IC50 (hIL-4Rα on cells [2]),Relative Inhibition of IL-13 induced TF-1 Proliferation IC50 (hIL-4Rα on cells [2]),Relative Blockade of IL-13 Binding IC50 (hIL-4Rα on cells [3]),Relative Inhibition of IL-4 induced pSTAT6 IC50 (hIL-4Rα on cells [4]),Relative Inhibition of IL-13 induced pSTAT6 IC50 (hIL-4Rα on cells [4]),Relative Blockade of IL-4 Binding IC50 (hIL-4Rα on cells [5])
B1,0.02,15.7,0.72,0.0081,0.693 relative to dupilumab,1.39 relative to dupilumab,0.486 relative to dupilumab,0.851 relative to dupilumab,0.695 relative to dupilumab,0.63 relative to dupilumab,0.624 relative to dupilumab,0.887 relative to dupilumab
B2,0.17,107,1.25,0.0141,0.427 relative to dupilumab,0.485 relative to dupilumab,0.414 relative to dupilumab,1.37 relative to dupilumab,0.968 relative to dupilumab,0.592 relative to dupilumab,0.671 relative to dupilumab,1.1 relative to dupilumab
B3,0.1,64.2,1.61,0.0181,0.267 relative to dupilumab,0.314 relative to dupilumab,0.376 relative to dupilumab,0.87 relative to dupilumab,0.942 relative to dupilumab,0.507 relative to dupilumab,0.685 relative to dupilumab,0.799 relative to dupilumab
B4,0.14,85.4,0.76,0.00856,0.521 relative to dupilumab,0.506 relative to dupilumab,0.514 relative to dupilumab,0.683 relative to dupilumab,0.949 relative to dupilumab,0.767 relative to dupilumab,0.66 relative to dupilumab,0.877 relative to dupilumab
B5,0.2,128,1.24,0.014,0.266 relative to dupilumab,0.614 relative to dupilumab,0.442 relative to dupilumab,1.11 relative to dupilumab,0.989 relative to dupilumab,0.493 relative to dupilumab,0.862 relative to dupilumab,1.01 relative to dupilumab
B6,0.18,116,2.1,0.0238,0.552 relative to dupilumab,0.897 relative to dupilumab,0.521 relative to dupilumab,0.94 relative to dupilumab,1 relative to dupilumab,0.78 relative to dupilumab,1.07 relative to dupilumab,1.01 relative to dupilumab
B7,0.09,59.5,1.02,0.0115,0.879 relative to dupilumab,1.44 relative to dupilumab,0.92 relative to dupilumab,2.06 relative to dupilumab,0.99 relative to dupilumab,0.729 relative to dupilumab,1.35 relative to dupilumab,1.16 relative to dupilumab
B8,0.25,157,0.83,0.0094,1.11 relative to dupilumab,1.05 relative to dupilumab,0.734 relative to dupilumab,1.47 relative to dupilumab,0.953 relative to dupilumab,1.01 relative to dupilumab,2.1 relative to dupilumab,1.01 relative to dupilumab
B9,0.36,228,0.76,0.00862,0.593 relative to dupilumab,0.942 relative to dupilumab,0.503 relative to dupilumab,1.34 relative to dupilumab,0.911 relative to dupilumab,0.761 relative to dupilumab,1.31 relative to dupilumab,0.757 relative to dupilumab
B10,0.18,114,1.1,0.0125,0.556 relative to dupilumab,0.856 relative to dupilumab,0.431 relative to dupilumab,1.39 relative to dupilumab,0.922 relative to dupilumab,0.599 relative to dupilumab,1.38 relative to dupilumab,0.992 relative to dupilumab
B11,0.15,92.2,1.17,0.0132,0.609 relative to dupilumab,0.877 relative to dupilumab,0.455 relative to dupilumab,1.72 relative to dupilumab,0.928 relative to dupilumab,0.638 relative to dupilumab,0.924 relative to dupilumab,0.977 relative to dupilumab
